Literature values as cited in publication PMC3416746.

Key:
[1] = target: mDia1 N-terminus (Mus musculus) (UniProt O08808)
[2] = target: mDia1 DID DID (Mus musculus) (UniProt O08808)

| Kd [1] [nM] | Kd [2] [nM] | Substance |
| --- | --- | --- |
| 6 | – | RhoA (from UniProt P61586) |
| – | 150 | mDia1 DAD DAD (from UniProt O08808) |
